± gives the uncertainty stated by the source.
Test: protein stability index of a GFP-peptide fusion (yeast GPS) (PSI 1-4); higher = more stable; sorted into four equal gates, so the index is relative within each strain
Settings: doa10∆
Procedure, shortened: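 Sequencing reads from sorted gates were used to score each peptide. The library consisted of tiled 17-residue yeast protein peptides fused downstream of GFP on a Cherry-expressing plasmid, pooled and carried in yeast. Mid-log cultures in leucine-free medium were split into four equal gates by GFP/Cherry ratio, and each gate's plasmids were PCR-amplified and Illumina-sequenced. The protein stability index adds up, over all gates, the read frequency multiplied by the gate number.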
With PEQVYSLLLTNVIITGS [ARP7] the protein stability index was 1.36 ± 0.06. For PEQYSDILLNERVWNIC [AAR2], the protein stability index was 3.38 ± 0.12. PERFMVFQLPTRLPAFE [RPC53] showed a protein stability index of 2.31 ± 0.065. In the case of PEYFESPLQSSKSKQSF [YMR129W/POM152], the protein stability index is reported as 2.78 ± 0.12. With PEYLAMYGLTMEWPKDM [ITC1] the protein stability index was 2.45 ± 0.074. For PFFKYIDDANVTRKQED [RPC37], the protein stability index was 2.55 ± 0.091. For PFILEYDLMAPNGHIST [YMR129W/POM152], the protein stability index was 2.94 ± 0.12. Work on PFKGEVVDGTVVSCSQH [RPB7] yielded a protein stability index of 3.04 ± 0.14. Work on PFSYLIDETMMDKPLNF [SRB5] yielded a protein stability index of 2.88 ± 0.11. PFVPVLDRRFEIFFKKD [FAS1] showed a protein stability index of 2.87 ± 0.059. PFYGSYTETDPAKVAEE [SRP54] gave a protein stability index of 3.19 ± 0.1. In the case of PGEYITTIKAIFDGNYG [YMR129W/POM152], the protein stability index is reported as 2.62 ± 0.066. PGSVNSAAKYKDMKLLR [NUT1] gave a protein stability index of 2.89 ± 0.11. For PGVDVSAEEQLRKIDML [SRB7], the protein stability index was 2.9 ± 0.084. In the case of PGVLPVGIDTHTATDIY [SNF2], the protein stability index is reported as 2.96 ± 0.066. PGVRVSGEDVIIGKTTP [RPB2] showed a protein stability index of 3.36 ± 0.13. Sequence PGYVDIVKTSSGNEMPP [RPS19A] has a protein stability index of 2.67 ± 0.19. PHANPITHAHSLSNPNS [PGD1] gave a protein stability index of 2.87 ± 0.046. In the case of PHTTLVNECIAQSHQRF [CDC53], the protein stability index is reported as 2.79 ± 0.066. In the case of PIGEAGDFGGWFCPCHG [RIP1], the protein stability index is reported as 2 ± 0.1. PIIIYGTENTERPPLLP [YOR098C/NUP1] showed a protein stability index of 3.13 ± 0.09. PIPIAVLDSYTPSTNEP [FAS1] showed a protein stability index of 2.78 ± 0.07. In the case of PIYTGDGWVKLTYKSEL [YMR153W/NUP53], the protein stability index is reported as 2.24 ± 0.081. PKAISNFLIKLSELSPG [YCS4] gave a protein stability index of 2.37 ± 0.08. Work on PKFISEALAFTSLVANE [YDL116W/NUP84] yielded a protein stability index of 1.23 ± 0.067. With PKKYKENNTDSARKELE [SMC1] the protein stability index was 2.96 ± 0.059. PKPDKPSGRTRGRSVMK [ESC2] showed a protein stability index of 3.14 ± 0.17. For PKQSDEYLKRVSVPVSG [SIR3], the protein stability index was 3.13 ± 0.086. Work on PKTGKVERSEAISKKDL [SEC65] yielded a protein stability index of 3.63 ± 0.16. PKVPEDIYKSHLDNSKS [RPN1] showed a protein stability index of 3.1 ± 0.12. PLAKIYLEENKSDSQYR [MED1] gave a protein stability index of 3.15 ± 0.086. PLDTIETELPTLSLPDS [SMC1] showed a protein stability index of 3 ± 0.12. Sequence PLGKILLKGDNITLITS [SME1] has a protein stability index of 1.9 ± 0.093. PLINRLKHYNGYDINYI [SWI1] showed a protein stability index of 2.41 ± 0.068. In the case of PLKYTKLIAAAEDGSRS [SNF6], the protein stability index is reported as 1.3 ± 0.23. PLLTKRKDLRDKLICSI [DIS3] showed a protein stability index of 2.55 ± 0.088. Work on PLLVPGMTPCTVSPDFV [FAS1] yielded a protein stability index of 1.64 ± 0.096. With PMDAYLKLNHIIANINS [SNU114] the protein stability index was 1.26 ± 0.078. Work on PMTVKLVQLPKSAMDTF [POP3] yielded a protein stability index of 2.15 ± 0.058. In the case of PNEFMQFKSKEVEKAHP [PRP8], the protein stability index is reported as 3.16 ± 0.08. In the case of PNEHPGAKYVIRDSGDR [RPO21], the protein stability index is reported as 3.01 ± 0.084. Sequence PNIMLIFGSGFGSADDT [FAS1] has a protein stability index of 3.07 ± 0.07. Sequence PNLGPQLWLNSSGDFDD [GRR1] has a protein stability index of 2.97 ± 0.16. In the case of PNVCNMKQYRDFLGVAS [PRP28], the protein stability index is reported as 1.99 ± 0.14. Sequence PPDSDSSISVMGENEKP [RPT3] has a protein stability index of 1.47 ± 0.16. For PPKPRKVLQLLRLTRIN [RPL7A], the protein stability index was 1.95 ± 0.095. For PPSSFGRSHTRNSTRSS [REC8], the protein stability index was 3.04 ± 0.14. PQEPKHIQEEEEQDVDM [RPC19] showed a protein stability index of 3.41 ± 0.09. In the case of PQFDSTQPKSSSSMDMQ [SSN3], the protein stability index is reported as 2.94 ± 0.069. With PQINILQPIKGESARRF [RPC40] the protein stability index was 2.17 ± 0.096. For PQKPVPLNVLQDQYKEG [SNF2], the protein stability index was 3.01 ± 0.07. In the case of PQTPLVEPVTERTKLQE [SNU114], the protein stability index is reported as 3.29 ± 0.15. Work on PQVLINRDPVKHAEFDL [SIR2] yielded a protein stability index of 2.39 ± 0.14. PQYINYSSIPSLQDSII [SSN2] showed a protein stability index of 2.97 ± 0.13. In the case of PRALQPSQFGMLCTADT [RET1], the protein stability index is reported as 1.87 ± 0.1. Work on PREDKENNRLLFECRTC [RPB9] yielded a protein stability index of 3.29 ± 0.14. Work on PRQRMEEVVSNDEGVWD [PRP8] yielded a protein stability index of 3.45 ± 0.068. PSCNNMLLITSGDSGVY [RPC11] showed a protein stability index of 1.32 ± 0.077. Work on PSDWQRNSFIRDMIMKR [ITC1] yielded a protein stability index of 3.01 ± 0.072. PSEILHLILDKLNQKYD [GRR1] gave a protein stability index of 3.14 ± 0.096. For PSRQFDHYESNQLVAKL [SRB8], the protein stability index was 3.02 ± 0.061. With PSTAIHTSPHQPSDVKP [SIR4] the protein stability index was 2.81 ± 0.052. PSYYGVRDTSPHGISVF [BRR2] gave a protein stability index of 1.35 ± 0.069. PTESYLQYIIHDTLNNE [BRR2] gave a protein stability index of 2.22 ± 0.058. For PTFSTHAQLLLSDRITG [PRP8], the protein stability index was 1.7 ± 0.033. For PTKLLVSEVAKIMQEAT [PRE8], the protein stability index was 2.63 ± 0.067. Sequence PTLPRSDRECPKCHSRE [RPB9] has a protein stability index of 2.79 ± 0.052. PTSPNYSPTSPSYSPTS [RPO21] gave a protein stability index of 2.78 ± 0.034. Sequence PVGSYEREQCRAGGAAA [PRE7] has a protein stability index of 3.02 ± 0.24. Sequence PWFWLLPLWHLLNRIPR [POP1] has a protein stability index of 2.57 ± 0.084. PYFPGGSIAMARVLFDD [CYT1] showed a protein stability index of 2.29 ± 0.14. PYGVYHPPFIKYACLAI [SIN4] gave a protein stability index of 1.42 ± 0.048. Sequence PYLVANVVEVMDMNEIE [RPT5] has a protein stability index of 2.86 ± 0.093. Work on QAELLQLAVKIINKVLD [YJL039C/NUP192] yielded a protein stability index of 2.33 ± 0.25. Sequence QAKLKKNVETLEEKILA [SMC4] has a protein stability index of 3.09 ± 0.08. In the case of QAPTTGFSFGSQLGGNK [YJL041W/NSP1], the protein stability index is reported as 3.02 ± 0.051. For QAQAQAQAQAQAQAQAH [GAL11], the protein stability index was 2.84 ± 0.071. With QAQAQVYAQQSTVQTPI [PGD1] the protein stability index was 2.8 ± 0.052. Work on QASDPSKKKKNIKKKDT [RPC53] yielded a protein stability index of 3.26 ± 0.17. QCPVKSAEDQLYAITFR [QCR2] gave a protein stability index of 3.14 ± 0.12. QDENIGLSMLAKLKELA [RPC31] showed a protein stability index of 3.14 ± 0.071. Work on QDIYYLAQTLKLWRKIA [RRI2] yielded a protein stability index of 2.04 ± 0.057. In the case of QDLILDLKKKLNSLKDE [SMC4], the protein stability index is reported as 2.39 ± 0.083. With QDREITNWARTTFRNEY [MED8] the protein stability index was 2.49 ± 0.09. Sequence QEELKKRQELEEASQQQ [MED2] has a protein stability index of 2.96 ± 0.058. For QEGLAKFGACVAQGIMN [RPN2], the protein stability index was 1.79 ± 0.058. In the case of QEKMDPNNSRDDYKDLT [IRR1], the protein stability index is reported as 3.33 ± 0.078. In the case of QELAKSIRSRRPYQVNV [PRE1], the protein stability index is reported as 2.92 ± 0.14. Sequence QELCYPDENHDNTSHDE [BRN1] has a protein stability index of 3.23 ± 0.073. For QELLNAETLCFTVNVLY [RPN3], the protein stability index was 3.11 ± 0.075. QEMIEISNVIKPNQTIM [SRP54] showed a protein stability index of 2.62 ± 0.23. Sequence QEQLKQMDQQLQYTALT [ARP7] has a protein stability index of 2.71 ± 0.16. QEQVYPDFKPWEHTAAE [SRB8] showed a protein stability index of 2.44 ± 0.16. In the case of QERKDFLKKVMDTIQDK [ECM29], the protein stability index is reported as 3.12 ± 0.13. QETCDKLRARLVEYGFD [SMC2] showed a protein stability index of 2.17 ± 0.14. For QEWLANLKLISVSLVDE [SIR4], the protein stability index was 2.77 ± 0.057. QFCGIKERNSLKKLKAM [BRR2] showed a protein stability index of 3 ± 0.23. With QFDIQSPLYMDTETFDT [YML103C/NUP188] the protein stability index was 3.11 ± 0.093. QFLQLDNDGFSFLMRQF [ECM29] gave a protein stability index of 1.33 ± 0.042. QFMKRFPMPYENEEFIT [ECM29] showed a protein stability index of 2.88 ± 0.062. With QFSYVDSSMTTVQENEL [AAR2] the protein stability index was 2.62 ± 0.044. In the case of QFTKVIDEPIKSIMDGI [FAS1], the protein stability index is reported as 1.86 ± 0.047. In the case of QFVDMVLPNTALKTSIQ [FAS1], the protein stability index is reported as 2.5 ± 0.091. With QGDVEQIAAQSPVELSR [SMC1] the protein stability index was 2.66 ± 0.087.
